Assay results reported in the MegaScale stability set (Tsuboyama et al. 2023).

B1: 2M8U (parent)
chain: TKAQVIEAFKVFDRDGNGYVTVDYLRKVLNELGDMMPADEIEEMIYEADPQNSGYVQYETFVGMLFL

Variants of: B1
Test: folding stability dG (cDNA display proteolysis); higher = more stable
Conditions: PBS, room temperature

Row | Variant | folding stability dG [kcal/mol]
1 | TKAQVIFAFKVFDRDGNGYVTVDYLRKVLNELGDMMPADEIEEMIYEADPQNSGYVQYETFVGMLFL [E7F] | 2.86
2 | TKAQPIEAFKVFDRDGNGYVTVDYLRKVLNELGDMMPADEIEEMIYEADPQNSGYVQYETFVGMLFL [V5P] | 1.77
3 | TKAQVIEAFKVFDRDGNGYVTVDYLRKVLNELGDMMPADEIEEMIYEADPQNSSYVQYETFVGMLFL [G54S] | 2.48
4 | VKAQVIEAFKVFDRDGNGYVTVDYLRKVLNELGDMMPADEIEEMIYEADPQNSGYVQYETFVGMLFL [T1V] | 3.32
5 | LKAQVIEAFKVFDRDGNGYVTVDYLRKVLNELGDMMPADEIEEMIYEADPQNSGYVQYETFVGMLFL [T1L] | 3.3
6 | TKAQVIEAFKVFDRDGNGYVTVDYLRKVLNELGDMMPADEIEEMIYEADPQNSGYVQYTTFVGMLFL [E59T] | 3.12
7 | TKAQVIEAFKVFDRDGNGYVTVDYLRKVLNELGDMMPADEIEEMIYEADPQNSGYVQYGTFVGMLFL [E59G] | 2.76
8 | TKAQVIEAFKVFDRDGNGYVTVDYLRKVLNELGDMMPADEIEEMIYEADPQNSGYVQYITFVGMLFL [E59I] | 3.41
9 | TKAQVIEAFKVFDRDGNGYVTVDYLWKVLNELGDMMPADEIEEMIYEADPQNSGYVQYETFVGMLFL [R26W] | 3.63
10 | TKAQVIEAFKVFDRDGNGYVTVDYLLKVLNELGDMMPADEIEEMIYEADPQNSGYVQYETFVGMLFL [R26L] | 3.38
11 | TKAQVIEAFCVFDRDGNGYVTVDYLRKVLNELGDMMPADEIEEMIYEADPQNSGYVQYETFVGMLFL [K10C] | 3.51
12 | TKAQVIEAFAVFDRDGNGYVTVDYLRKVLNELGDMMPADEIEEMIYEADPQNSGYVQYETFVGMLFL [K10A] | 3.13
13 | TKAQVIEAFKVFDRDGNGYVTVDYLRKVLNELGDMMPADEIEEMIYEADPSNSGYVQYETFVGMLFL [Q51S] | 3.49
14 | TKAQVIEAFKVFDRDGNGYVTVDYLRKDLNELGDMMPADEIEEMIYEADPQNSGYVQYETFVGMLFL [V28D] | 0.754
15 | TKAQVIEAFKVFDRDGNGYVTVDYLRKLLNELGDMMPADEIEEMIYEADPQNSGYVQYETFVGMLFL [V28L] | 2.71
16 | TKAQVIEAFKVFDRDGNGYVTVDYLRKVLNELGDMMPADEIEEMIYQADPQNSGYVQYETFVGMLFL [E47Q] | 3.96
17 | TKAQVIEAFKVFDRDGNGYVTVDYLRKVLNELGDMMPADEIEEMIYWADPQNSGYVQYETFVGMLFL [E47W] | 3.76
18 | TKAQVIEAFKVFDRDGPGYVTVDYLRKVLNELGDMMPADEIEEMIYEADPQNSGYVQYETFVGMLFL [N17P] | 1.86
19 | TKAQVIEAFKVFDRDGRGYVTVDYLRKVLNELGDMMPADEIEEMIYEADPQNSGYVQYETFVGMLFL [N17R] | 3.04
20 | TKAQVIEAFKVFDRDGLGYVTVDYLRKVLNELGDMMPADEIEEMIYEADPQNSGYVQYETFVGMLFL [N17L] | 3.39

Row | Variant | folding stability dG [kcal/mol]
21 | TKAQVIEAFKVFDRDGNGYVTVDYLRKVLNELGDMMPADEIEEMIYEADPQNSGYVQDETFVGMLFL [Y58D] | 1.3
22 | TKAQVIEAFKVFDRDGNGYVTVDYLRKVLNELGDMMPADEIEEMIYEADPQNSGYVQPETFVGMLFL [Y58P] | 1.71
23 | TKAQVIEAFKVFDRDGNGYVTVDYLRKVANELGDMMPADEIEEMIYEADPQNSGYVQYETFVGMLFL [L29A] | 2.57
24 | TKAQVIEAFKVFDRDGNGYVTVDYLRKVLNELGDMMPADEIEEMGYEADPQNSGYVQYETFVGMLFL [I45G] | 2.2
25 | TKAQVIEAFKVFDRDGNGYVTVDYLRKVLNELGDMFPADEIEEMIYEADPQNSGYVQYETFVGMLFL [M36F] | 4.23
26 | TKAQVIEAFKVFDRDGNGYVTVDYLRKVLNELGDMRPADEIEEMIYEADPQNSGYVQYETFVGMLFL [M36R] | 3.6
27 | TKAQVIEAFKVFDRDGNGYVTVDYLRKVLNELGDMVPADEIEEMIYEADPQNSGYVQYETFVGMLFL [M36V] | 3.81
28 | TTAQVIEAFKVFDRDGNGYVTVDYLRKVLNELGDMMPADEIEEMIYEADPQNSGYVQYETFVGMLFL [K2T] | 2.79
29 | TMAQVIEAFKVFDRDGNGYVTVDYLRKVLNELGDMMPADEIEEMIYEADPQNSGYVQYETFVGMLFL [K2M] | 3.65
30 | TEAQVIEAFKVFDRDGNGYVTVDYLRKVLNELGDMMPADEIEEMIYEADPQNSGYVQYETFVGMLFL [K2E] | 3.07
31 | TRAQVIEAFKVFDRDGNGYVTVDYLRKVLNELGDMMPADEIEEMIYEADPQNSGYVQYETFVGMLFL [K2R] | 3.02
32 | TKAQVIEIFKVFDRDGNGYVTVDYLRKVLNELGDMMPADEIEEMIYEADPQNSGYVQYETFVGMLFL [A8I] | 3.5
33 | TKAQVIEAFKVFDRDGNGYVTVDELRKVLNELGDMMPADEIEEMIYEADPQNSGYVQYETFVGMLFL [Y24E] | 4.23
34 | TKAQVIEAFKVFDRDGNGYVTVDYLRKVLNEAGDMMPADEIEEMIYEADPQNSGYVQYETFVGMLFL [L32A] | 2.77
35 | TKAQVIEAFKVFDRDGNGYVTVDYLRKVLNELFDMMPADEIEEMIYEADPQNSGYVQYETFVGMLFL [G33F] | 3.94
36 | TKAQVIEAFKVFDRDGNGYVTVDYLRKVLNELPDMMPADEIEEMIYEADPQNSGYVQYETFVGMLFL [G33P] | 3.54
37 | TKAQVIEAFKVFDRDGNGYVTVDYLRKVLNELGDMMPADEIEEMIYEADPQNSGYVQYETFVRMLFL [G63R] | 3.54
38 | TKAQVIEAFKVFDRDGNGYVTVDYLRKVLNELGDMMPADEIEEMIYEADPQNSGYVRYETFVGMLFL [Q57R] | 3.13
39 | TKAQVIEAFKVFDRDGNGYVTVDYLRKVLNELGDMMPADEIEEMIYEADPQNSGYVDYETFVGMLFL [Q57D] | 3.25
40 | TKAQVIEAFKVFDRDGNGYVTVDYLRKVLNELGDIMPADEIEEMIYEADPQNSGYVQYETFVGMLFL [M35I] | 3.69
